Data as given in publication PMC7374170 (2020).
Several values for one entry are separate records, joined by “and”; a condition that tells them apart may be missing. Equal entries are not always repeated.

B1: TRIB3 (tribbles pseudokinase 3), purified protein (natural protein)
chain: MRATPLAAPAGSLSRKKRLELDDNLDTERPVQKRARSGPQPRLPPCLLPLSPPTAPDRATAVATASRLGPYVLLEPEEGGRAYQALHCPTGTEYTCKVYPVQEALAVLEPYARLPPHKHVARPTEVLAGTQLLYAFFTRTHGDMHSLVRSRHRIPEPEAAVLFRQMATALAHCHQHGLVLRDLKLCRFVFADRERKKLVLENLEDSCVLTGPDDSLWDKHACPAYVGPEILSSRASYSGKAADVWSLGVALFTMLAGHYPFQDSEPVLLFGKIRRGAYALPAGLSAPARCLVRCLLRREPAERLTATGILLHPWLRQDPMPLAPTRSHLWEAAQVVPDGLGLDEAREEEGDREVVLYG

Tests used:
JGZ-M2 = assay: SPR
JGZ-M13 = assay: SPR
JGZ-M10 = assay: SPR
JGZ-M12 = assay: SPR
JGZ-M15 = assay: SPR
JGZ-M1 = assay: SPR
JGZ-M11 = assay: SPR
JGZ-M6 = assay: SPR
JGZ-M4 = assay: SPR
[1] = target: T1, SAH-JGZ4, stapled JGZ peptide (UniProt P00533, two units of nonnatural alkenyl amino acids S5 at the relative positions i and i + 4, cross-linked by ring-closing olefin metathesis); assay: SPR
SAH-JGZ2 = assay: SPR
[2] = target: T1, SAH-JGZ4, stapled JGZ peptide; assay: SPR; remark: listed apart in the source
[3] = target: T1, SAH-JGZ4, stapled JGZ peptide; assay: FP
[4] = target: B1; assay: SPR

| Binder | Kd (JGZ-M2) | Kd (JGZ-M13) | Kd (JGZ-M10) | Kd (JGZ-M12) | Kd (JGZ-M15) | Kd (JGZ-M1) | Kd (JGZ-M11) | Kd (JGZ-M6) | Kd (JGZ-M4) | Kd [1] | Kd (SAH-JGZ2) | Kd [2] | Kd [3] | Kd [4] |
| --- | --- | --- | --- | --- | --- | --- | --- | --- | --- | --- | --- | --- | --- | --- |
| B1 | 424 nM | 796 nM | 337 nM | 402 nM | 1160 nM | 642 nM | 892 nM | 1210 nM | 2470 nM | 84.1 nM and 66.1 nM | 235 nM | 137 nM | 55.4 nM |  |
| NQALLRIIKETEFK [JMA2 peptide with the Leu-to-Ile substitution] |  |  |  |  |  |  |  |  |  |  |  |  |  | 1060 nM |
| NQALLRIVKETEFK [JMA2 peptide with the Leu-to-Val substitution] |  |  |  |  |  |  |  |  |  |  |  |  |  | 5370 nM |
